Test results: patent US20230324408A1 (JUNO THERAPEUTICS, published 2023)

B1: anti-idiotype antibody clone F112 (antibody, mouse IgG1, V domains shown)
VH: QVQLQQPGAELVRPGASVKLSCKASGYPFTSYWINWVKQRPGQGLEWIGMIDPSDSETHYNQMFKDKATLTVDRSSSTAYMHLSSLTSEDSAVYYCARGGIRDYWGQGTTLTVSS
VL: QAVVTQESALTTSPGETVTLTCRSSTGAVTTSNYANWVQEKSDHLFTGLIGGTNNRAPGVPARFSGSLIGDKAALTITGAQTEDEAIYFCALWYSNHWVFGGGTKLTVLG
B2: anti-idiotype antibody clone F101 (antibody, mouse IgG1, kappa, V domains shown)
VH: QVQFQQSGAELARPGASVKLSCKASGYTFTSYWMQWVKQRPGQGLEWIGTIYPGDGDARYSQKFKGKATLTADKSSSTAYMQLSSLASEDSAVYYCTRRRGYDAMDYWGQGTSVTVSS
VL: NIVLTQSPASLAVSLGQRATISCRASESVDSYGSSFMHWYQEKPGQPPKLLIFLASNLESGVPARFSGSGSRTDFTLTIDPVEADDAATYYCQQNNEDPNMYTFGGGTKLEIRR
B3: anti-idiotype antibody clone F107 (antibody, mouse IgG1, kappa, V domains shown)
VH: QVTLKESGPGILKPSQTLSLTCSFSGFSLNTFGMGVGWIRQPSGKGLEWLAHIWWDDDKHYHPSLKSQLTISKDTSRNQVFLKITSVDTTDTATYYCVRRYRYDVFDYWGPGTTLTVSS
VL: DVMMTQTPLSLPVSLGDQASISCRSSQSLVHSNGNTYLHWYLQKPGQSPKLLIYKVSNRFSGVPDRFSGSGSGTDFTLKISRVEAEDLGVYFCSQSTHGPWTFGGGTKLEIKR

target: exemplary anti-ROR1 (ROR 1-1) chimeric antigen receptor; assay: cell-based or functional assay
Sequence (chain, as listed by the source mutant limits assumed): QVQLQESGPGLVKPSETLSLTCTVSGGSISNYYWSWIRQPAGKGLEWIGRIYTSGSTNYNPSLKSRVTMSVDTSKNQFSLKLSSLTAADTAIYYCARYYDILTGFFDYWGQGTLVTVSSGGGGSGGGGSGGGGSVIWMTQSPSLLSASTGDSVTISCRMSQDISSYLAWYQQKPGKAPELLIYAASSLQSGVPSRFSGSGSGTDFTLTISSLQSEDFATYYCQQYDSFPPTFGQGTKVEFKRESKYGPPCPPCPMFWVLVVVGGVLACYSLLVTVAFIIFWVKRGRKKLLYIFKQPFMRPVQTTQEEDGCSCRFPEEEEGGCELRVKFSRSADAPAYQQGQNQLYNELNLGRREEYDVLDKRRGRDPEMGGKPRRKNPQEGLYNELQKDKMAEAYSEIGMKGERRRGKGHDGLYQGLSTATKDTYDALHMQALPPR

Row | Binder | % Nur77-TdT of EGFRt+ cells, soluble antibody 0.3 ug/mL [%] | % Nur77-TdT of EGFRt+ cells, soluble antibody 0.6 ug/mL [%] | % Nur77-TdT of EGFRt+ cells, soluble antibody 10 ug/mL [%]
1 | B1 | 38.3 | 41.3 | 43.2
2 | B2 | 11.4 | 11.8 | 11.7
3 | B3 | 15.6 | 19.9 | 28.3

target: exemplary anti-ROR1 (ROR 1-1) chimeric antigen receptor; assay: cell-based or functional assay; remark: another data set of the same source

Row | Binder | % Nur77-TdT of EGFRt+ cells, plate coated with 5 ug/ml antibody [%]
4 | B1 | 83.9
5 | B2 | 89.8
6 | B3 | 85
